Data from PMC4351158 (Structure (London, England : 1993), 2015).
Where no end group is shown, it is not given here. fluorescein = fluorescein, a fluorescent label on the peptide N-terminus

Assays:
Test in all cases: fluorescence polarisation
DegS R178A/H198P = target: T1, DegS R178A/H198P (E. coli, UniProt P0AEE3 27-355, R178A | H198P)
T1 sequence (looked up): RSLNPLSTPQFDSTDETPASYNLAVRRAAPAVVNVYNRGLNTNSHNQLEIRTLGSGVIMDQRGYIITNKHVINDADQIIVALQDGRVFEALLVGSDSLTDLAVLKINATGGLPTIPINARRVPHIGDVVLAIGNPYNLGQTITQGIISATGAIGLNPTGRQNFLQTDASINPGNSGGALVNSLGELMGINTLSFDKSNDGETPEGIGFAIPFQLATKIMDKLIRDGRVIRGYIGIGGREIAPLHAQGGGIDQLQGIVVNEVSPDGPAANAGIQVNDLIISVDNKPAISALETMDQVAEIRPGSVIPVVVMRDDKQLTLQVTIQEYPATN

DegS T169A = target: T2, DegS T169A (E. coli, UniProt P0AEE3 27-355, T169A)
T2 sequence (looked up): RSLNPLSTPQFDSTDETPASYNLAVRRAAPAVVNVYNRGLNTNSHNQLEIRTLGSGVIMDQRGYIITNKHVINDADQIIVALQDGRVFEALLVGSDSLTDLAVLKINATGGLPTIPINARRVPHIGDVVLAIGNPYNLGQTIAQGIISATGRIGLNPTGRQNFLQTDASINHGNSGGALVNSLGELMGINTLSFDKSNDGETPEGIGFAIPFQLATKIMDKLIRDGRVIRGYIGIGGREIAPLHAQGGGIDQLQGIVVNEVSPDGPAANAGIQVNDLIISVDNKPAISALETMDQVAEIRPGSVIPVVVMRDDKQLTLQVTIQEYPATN

DegS L164A = target: T3, DegS L164A (E. coli, UniProt P0AEE3 27-355, L164A)
T3 sequence (looked up): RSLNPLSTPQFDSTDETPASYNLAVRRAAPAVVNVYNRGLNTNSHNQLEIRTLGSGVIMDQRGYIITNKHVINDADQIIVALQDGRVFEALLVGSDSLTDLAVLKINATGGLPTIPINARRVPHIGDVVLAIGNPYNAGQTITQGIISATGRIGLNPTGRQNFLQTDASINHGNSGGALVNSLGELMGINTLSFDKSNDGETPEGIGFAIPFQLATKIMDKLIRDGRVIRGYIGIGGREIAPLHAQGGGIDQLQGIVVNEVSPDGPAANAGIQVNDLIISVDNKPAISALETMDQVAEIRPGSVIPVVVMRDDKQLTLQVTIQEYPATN

DegS P161A/H198P = target: T4, DegS P161A/H198P (E. coli, UniProt P0AEE3 27-355, P161A | H198P)
T4 sequence (looked up): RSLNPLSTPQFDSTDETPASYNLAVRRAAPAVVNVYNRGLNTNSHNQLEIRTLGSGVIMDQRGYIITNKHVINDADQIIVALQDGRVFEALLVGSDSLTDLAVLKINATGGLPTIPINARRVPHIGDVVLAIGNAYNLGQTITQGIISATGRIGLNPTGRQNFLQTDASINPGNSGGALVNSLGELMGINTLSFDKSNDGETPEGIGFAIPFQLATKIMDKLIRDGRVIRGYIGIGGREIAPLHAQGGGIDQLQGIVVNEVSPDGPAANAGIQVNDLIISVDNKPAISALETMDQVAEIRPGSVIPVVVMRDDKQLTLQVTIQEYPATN

DegS L164A/H198P = target: T5, DegS L164A/H198P (E. coli, UniProt P0AEE3 27-355, L164A | H198P)
T5 sequence (looked up): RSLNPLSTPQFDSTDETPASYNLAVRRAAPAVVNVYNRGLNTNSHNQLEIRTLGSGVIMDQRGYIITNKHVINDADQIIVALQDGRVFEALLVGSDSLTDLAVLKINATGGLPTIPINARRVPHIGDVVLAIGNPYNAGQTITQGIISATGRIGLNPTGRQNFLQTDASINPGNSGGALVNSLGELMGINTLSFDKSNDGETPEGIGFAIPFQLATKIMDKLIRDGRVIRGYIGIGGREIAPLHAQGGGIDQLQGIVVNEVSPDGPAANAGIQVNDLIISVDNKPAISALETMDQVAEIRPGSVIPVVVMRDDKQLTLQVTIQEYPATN

DegS D221A = target: T6, DegS D221A (E. coli, UniProt P0AEE3 27-355, D221A)
T6 sequence (looked up): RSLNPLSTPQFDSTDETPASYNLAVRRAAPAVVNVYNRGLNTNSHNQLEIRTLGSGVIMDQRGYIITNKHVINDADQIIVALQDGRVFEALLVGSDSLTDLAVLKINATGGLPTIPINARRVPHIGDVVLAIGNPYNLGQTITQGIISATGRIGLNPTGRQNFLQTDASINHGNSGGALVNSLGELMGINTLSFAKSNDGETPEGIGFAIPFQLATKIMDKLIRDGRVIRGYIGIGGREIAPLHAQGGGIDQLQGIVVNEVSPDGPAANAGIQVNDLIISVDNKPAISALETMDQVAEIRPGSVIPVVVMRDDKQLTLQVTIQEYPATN

Kd (DegS R178A/H198P): 4 ± 0.1 µM
Kd (DegS T169A): 1800 ± 100 nM
Kd (DegS L164A): 2800 ± 600 nM
Kd (DegS P161A/H198P): 2500 ± 400 nM
Kd (DegS L164A/H198P): 2500 ± 500 nM
Kd (DegS D221A): 3.2 ± 0.2 µM
B1: fluorescent OMP peptide fluorescein-DNRDGNVYYF (peptide)
peptide: fluorescein-DNRDGNVYYF
